Source: IntAct's records for PubMed 20462497

B1: Interleukin-10 receptor subunit beta (Homo sapiens), Q08334 (parent)
chain: MAWSLGSWLGGCLLVSALGMVPPPENVRMNSVNFKNILQWESPAFAKGNLTFTAQYLSYRIFQDKCMNTTLTECDFSSLSKYGDHTLRVRAEFADEHSDWVNITFCPVDDTIIGPPGMQVEVLADSLHMRFLAPKIENEYETWTMKNVYNSWTYNVQYWKNGTDEKFQITPQYDFEVLRNLEPWTTYCVQVRGFLPDRNKAGEWSEPVCEQTTHDETVPSWMVAVILMASVFMVCLALLGCFALLWCVYKKTKYAFSPRNSLPQHLKEFLGHPHHNTLLFFSFPLSDENDVFDKLSVIAEDSESGKQNPGDSCSLGTPPGQGPQS
B2: Interleukin-10 receptor subunit beta (Homo sapiens), Q08334 (parent)
chain: B1 chain
partner: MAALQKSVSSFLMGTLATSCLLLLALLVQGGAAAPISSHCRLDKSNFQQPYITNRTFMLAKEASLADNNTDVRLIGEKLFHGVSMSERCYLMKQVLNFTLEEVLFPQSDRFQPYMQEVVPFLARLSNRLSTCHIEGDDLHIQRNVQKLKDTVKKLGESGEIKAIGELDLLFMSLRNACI

Variants of: B1
Details: with il10_human IL10, P22301
Sequence of il10_human IL10, P22301 (P22301 whole entry): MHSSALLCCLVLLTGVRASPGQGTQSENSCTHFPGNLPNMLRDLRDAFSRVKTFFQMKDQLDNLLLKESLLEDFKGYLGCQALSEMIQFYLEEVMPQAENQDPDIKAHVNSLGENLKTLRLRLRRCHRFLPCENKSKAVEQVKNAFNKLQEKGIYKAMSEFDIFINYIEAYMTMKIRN

effect of a mutation on the interaction | Variant
decreasing interaction | MAWSLGSWLGGCLLVSALGMVPPPENVRMNSVNFKNILQWESPAFAKGNLTFTAQYLSYRIFQDKCMNTTLTECDFSSLSKAGDHTLRVRAEFADEHSDWVNITFCPVDDTIIGPPGMQVEVLADSLHMRFLAPKIENEYETWTMKNVYNSWTYNVQYWKNGTDEKFQITPQYDFEVLRNLEPWTTYCVQVRGFLPDRNKAGEWSEPVCEQTTHDETVPSWMVAVILMASVFMVCLALLGCFALLWCVYKKTKYAFSPRNSLPQHLKEFLGHPHHNTLLFFSFPLSDENDVFDKLSVIAEDSESGKQNPGDSCSLGTPPGQGPQS [Y82A]

Variants of: B2
Details: with il22_human IL22, Q9GZX6

effect of a mutation on the interaction | Variant
decreasing interaction | MAWSLGSWLGGCLLVSALGMVPPPENVRMNSVNFKNILQWESPAFAKGNLTFTAQYLSYRIFQDKCMNTTLTECDFSSLSKAGDHTLRVRAEFADEHSDWVNITFCPVDDTIIGPPGMQVEVLADSLHMRFLAPKIENEYETWTMKNVYNSWTYNVQYWKNGTDEKFQITPQYDFEVLRNLEPWTTYCVQVRGFLPDRNKAGEWSEPVCEQTTHDETVPSWMVAVILMASVFMVCLALLGCFALLWCVYKKTKYAFSPRNSLPQHLKEFLGHPHHNTLLFFSFPLSDENDVFDKLSVIAEDSESGKQNPGDSCSLGTPPGQGPQS [Y82A]
